Patent publication US20150203577A1 (Chugai, published 2015)

T1: mouse FcγRIII extracellular domain, C-terminal His tag (mouse, UniProt P08508 31-215)
T1 construct: also called mFcγRIII; mFcgRIII
T1 chain: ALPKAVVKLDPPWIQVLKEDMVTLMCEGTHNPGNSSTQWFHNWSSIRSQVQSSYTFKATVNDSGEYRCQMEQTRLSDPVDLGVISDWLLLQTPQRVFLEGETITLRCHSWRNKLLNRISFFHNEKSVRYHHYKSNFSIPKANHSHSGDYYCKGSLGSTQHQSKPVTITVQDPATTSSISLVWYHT

T2: mouse FcγRII extracellular domain, C-terminal His tag (mouse, UniProt P08101 30-210)
T2 construct: also called mFcγRII; mFcgRII
T2 sequence: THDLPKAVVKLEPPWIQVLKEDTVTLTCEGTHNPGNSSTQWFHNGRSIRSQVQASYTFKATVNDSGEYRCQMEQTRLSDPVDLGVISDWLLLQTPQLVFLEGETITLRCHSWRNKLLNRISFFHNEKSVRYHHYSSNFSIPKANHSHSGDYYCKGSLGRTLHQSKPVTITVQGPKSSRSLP


What was measured:
[1] = target: T1, mouse FcγRIII extracellular domain, …; test: SPR (Biacore T200), antibody captured on Protein L, mFcγR analyte
Procedure: (§1) Each altered antibody was analyzed for its interaction with each Fcγ receptor prepared above using Biacore T100 (GE Healthcare Japan Corp.), Biacore T200 (GE Healthcare Japan Corp.), Biacore A100, or Biacore 4000. The running buffer used was HBS-EP+ (GE Healthcare Japan Corp.). The assay temperature was set to 25° C. The sensor chips used were chips prepared by immobilizing Protein L (ACTIGEN or BioVision) onto Series S Sensor Chip CM5 (GE Healthcare Japan Corp.) or Series S Sensor Chip CM4 (GE Healthcare Japan Corp.) by the amine coupling method.
(§2) In order to calculate the KD value of each altered antibody for FcγR, kinetic analysis was conducted according to the following method: first, the antibody of interest was captured onto any of these chips and allowed to interact with mFcγR diluted with a running buffer. For the obtained sensorgram, the assay results were globally fit into the 1:1 Langmuir binding model using Biacore Evaluation Software to calculate an association rate constant ka (L/mol/s) and a dissociation rate constant kd (1/s). From these values, the dissociation constant KD (mol/L) was calculated.

[2] = target: T2, mouse FcγRII extracellular domain, …; test: as above
Procedure: as §1, §2

Row | Binder | Kd [1] [nM] | relative mFcγRIII-binding activity (mIgG1 = 1) [1] | Kd [2] [nM] | relative mFcγRII-binding activity (mIgG1 = 1) [2]
1 | H237-MB536/MRAL-k0 (antibody, mouse IgG1, kappa, copies: 2 + 2) heavy: QVQLQESGPGLVKPSETLSLTCAVSGHSISHDHAWSWVRQPPGEGLEWIGFISYSGITNYNPSLQGRVTISRDNSKNTLYLQMNSLRAEDTAVYYCARSLARTTAMDYWGEGTLVTVSSAKTTPPSVYPLAPGSAAQTNSMVTLGCLVKGYFPEPVTVTWNSGSLSSGVHTFPAVLQSDLYTLSSSVTVPSSTWPSETVTCNVAHPASSTKVDKKIVPRDCGCKPCICQPNEVEEVFIFPPKPKDVLTITLTPKVTCVVVDISKDDPEVQFSWFVDDVEVHTAQTQPREEQFNSTFRSVSELPIMHQDWLNGKEFKCRVDSDAFPAPIERTISKTKGRPKAPQVYTIPPPKEQMAKDKVSLTCMITDFFPEDITVEWQWNGQPAENYKNTQPIMDTDGSYFVYSKLNVQKSNWEAGNTFTCSVLHEGLHNHHTEKSLSHSPGK light: not shown | 36.8 | 7.7 fold vs H237-mIgG1/MRAL-k0 | 0.53 | 396 fold vs H237-mIgG1/MRAL-k0
2 | H237-MB539/MRAL-k0 (antibody, mouse IgG1, kappa, copies: 2 + 2) heavy: QVQLQESGPGLVKPSETLSLTCAVSGHSISHDHAWSWVRQPPGEGLEWIGFISYSGITNYNPSLQGRVTISRDNSKNTLYLQMNSLRAEDTAVYYCARSLARTTAMDYWGEGTLVTVSSAKTTPPSVYPLAPGSAAQTNSMVTLGCLVKGYFPEPVTVTWNSGSLSSGVHTFPAVLQSDLYTLSSSVTVPSSTWPSETVTCNVAHPASSTKVDKKIVPRDCGCKPCICEPNEVEMVFIFPPKPKDVLTITLTPKVTCVVVDISKDDPEVQFSWFVDDVEVHTAQTQPREEQFNLTFRSVSELPIMHQDWLNGKEFKCRVDSAAFPAPIEKTISKTKGRPKAPQVYTIPPPKEQMAKDKVSLTCMITDFFPEDITVEWQWNGQPAENYKNTQPIMDTDGSYFVYSKLNVQKSNWEAGNTFTCSVLHEGLHNHHTEKSLSHSPGK light: not shown | 147 | 1.9 fold vs H237-mIgG1/MRAL-k0 | 2 | 105 fold vs H237-mIgG1/MRAL-k0
3 | H237-MB543/MRAL-k0 (antibody, mouse IgG1, kappa, copies: 2 + 2) heavy: QVQLQESGPGLVKPSETLSLTCAVSGHSISHDHAWSWVRQPPGEGLEWIGFISYSGITNYNPSLQGRVTISRDNSKNTLYLQMNSLRAEDTAVYYCARSLARTTAMDYWGEGTLVTVSSAKTTPPSVYPLAPGSAAQTNSMVTLGCLVKGYFPEPVTVTWNSGSLSSGVHTFPAVLQSDLYTLSSSVTVPSSTWPSETVTCNVAHPASSTKVDKKIVPRDCGCKPCICEPNEVEMVFIFPPKPKDVLTITLTPKVTCVVVDISKDDPEVQFSWFVDDVEVHTAQTQPREEQFNSTFRSVSELPIMHQDWLNGKEFKCRVDSAAFPAPIERTISKTKGRPKAPQVYTIPPPKEQMAKDKVSLTCMITDFFPEDITVEWQWNGQPAENYKNTQPIMDTDGSYFVYSKLNVQKSNWEAGNTFTCSVLHEGLHNHHTEKSLSHSPGK light: not shown | 126 | 2.2 fold vs H237-mIgG1/MRAL-k0 | 1.08 | 195 fold vs H237-mIgG1/MRAL-k0
4 | H237-MB540/MRAL-k0 (antibody, mouse IgG1, kappa, copies: 2 + 2) heavy: QVQLQESGPGLVKPSETLSLTCAVSGHSISHDHAWSWVRQPPGEGLEWIGFISYSGITNYNPSLQGRVTISRDNSKNTLYLQMNSLRAEDTAVYYCARSLARTTAMDYWGEGTLVTVSSAKTTPPSVYPLAPGSAAQTNSMVTLGCLVKGYFPEPVTVTWNSGSLSSGVHTFPAVLQSDLYTLSSSVTVPSSTWPSETVTCNVAHPASSTKVDKKIVPRDCGCKPCICEPNEVEMVFIFPPKPKDVLTITLTPKVTCVVVDISKDDPEVQFSWFVDDVEVHTAQTQPREEQFNLTFRSVSELPIMHQDWLNGKEFKCRVNSDAFPAPIEKTISKTKGRPKAPQVYTIPPPKEQMAKDKVSLTCMITDFFPEDITVEWQWNGQPAENYKNTQPIMDTDGSYFVYSKLNVQKSNWEAGNTFTCSVLHEGLHNHHTEKSLSHSPGK light: not shown | 99.4 | 2.8 fold vs H237-mIgG1/MRAL-k0 | 1.41 | 149 fold vs H237-mIgG1/MRAL-k0
5 | H237-MB542/MRAL-k0 (antibody, mouse IgG1, kappa, copies: 2 + 2) heavy: QVQLQESGPGLVKPSETLSLTCAVSGHSISHDHAWSWVRQPPGEGLEWIGFISYSGITNYNPSLQGRVTISRDNSKNTLYLQMNSLRAEDTAVYYCARSLARTTAMDYWGEGTLVTVSSAKTTPPSVYPLAPGSAAQTNSMVTLGCLVKGYFPEPVTVTWNSGSLSSGVHTFPAVLQSDLYTLSSSVTVPSSTWPSETVTCNVAHPASSTKVDKKIVPRDCGCKPCICEPNEVEMVFIFPPKPKDVLTITLTPKVTCVVVDISKDDPEVQFSWFVDDVEVHTAQTQPREEQFNSTFRSVSELPIMHQDWLNGKEFKCRVDSDAFPAPIEKTISKTKGRPKAPQVYTIPPPKEQMAKDKVSLTCMITDFFPEDITVEWQWNGQPAENYKNTQPIMDTDGSYFVYSKLNVQKSNWEAGNTFTCSVLHEGLHNHHTEKSLSHSPGK light: not shown | 83.3 | 3.4 fold vs H237-mIgG1/MRAL-k0 | 0.547 | 384 fold vs H237-mIgG1/MRAL-k0

More lines, in order of falling Kd [1], values ahead:

Row | Kd [1] [nM] | relative mFcγRIII-binding activity (mIgG1 = 1) [1] | Kd [2] [nM] | relative mFcγRII-binding activity (mIgG1 = 1) [2] | Binder
6 | 164 | 1.7 fold vs H237-mIgG1/MRAL-k0 | 2.44 | 86.2 fold vs H237-mIgG1/MRAL-k0 | H237-MB538/MRAL-k0 (antibody, mouse IgG1, kappa, copies: 2 + 2) heavy: QVQLQESGPGLVKPSETLSLTCAVSGHSISHDHAWSWVRQPPGEGLEWIGFISYSGITNYNPSLQGRVTISRDNSKNTLYLQMNSLRAEDTAVYYCARSLARTTAMDYWGEGTLVTVSSAKTTPPSVYPLAPGSAAQTNSMVTLGCLVKGYFPEPVTVTWNSGSLSSGVHTFPAVLQSDLYTLSSSVTVPSSTWPSETVTCNVAHPASSTKVDKKIVPRDCGCKPCICEPNEVEMVFIFPPKPKDVLTITLTPKVTCVVVDISKDDPEVQFSWFVDDVEVHTAQTQPREEQFNLTFRSVSELPIMHQDWLNGKEFKCRVNSAAFPAPIEKTISKTKGRPKAPQVYTIPPPKEQMAKDKVSLTCMITDFFPEDITVEWQWNGQPAENYKNTQPIMDTDGSYFVYSKLNVQKSNWEAGNTFTCSVLHEGLHNHHTEKSLSHSPGK light: not shown
7 | 87.2 | 3.2 fold vs H237-mIgG1/MRAL-k0 | 0.76 | 276 fold vs H237-mIgG1/MRAL-k0 | H237-MB544/MRAL-k0 (antibody, mouse IgG1, kappa, copies: 2 + 2) heavy: QVQLQESGPGLVKPSETLSLTCAVSGHSISHDHAWSWVRQPPGEGLEWIGFISYSGITNYNPSLQGRVTISRDNSKNTLYLQMNSLRAEDTAVYYCARSLARTTAMDYWGEGTLVTVSSAKTTPPSVYPLAPGSAAQTNSMVTLGCLVKGYFPEPVTVTWNSGSLSSGVHTFPAVLQSDLYTLSSSVTVPSSTWPSETVTCNVAHPASSTKVDKKIVPRDCGCKPCICEPNEVEMVFIFPPKPKDVLTITLTPKVTCVVVDISKDDPEVQFSWFVDDVEVHTAQTQPREEQFNSTFRSVSELPIMHQDWLNGKEFKCRVNSDAFPAPIERTISKTKGRPKAPQVYTIPPPKEQMAKDKVSLTCMITDFFPEDITVEWQWNGQPAENYKNTQPIMDTDGSYFVYSKLNVQKSNWEAGNTFTCSVLHEGLHNHHTEKSLSHSPGK light: not shown
8 | 33.2 | 8.5 fold vs H237-mIgG1/MRAL-k0 | 0.498 | 422 fold vs H237-mIgG1/MRAL-k0 | H237-MB535/MRAL-k0 (antibody, mouse IgG1, kappa, copies: 2 + 2) heavy: QVQLQESGPGLVKPSETLSLTCAVSGHSISHDHAWSWVRQPPGEGLEWIGFISYSGITNYNPSLQGRVTISRDNSKNTLYLQMNSLRAEDTAVYYCARSLARTTAMDYWGEGTLVTVSSAKTTPPSVYPLAPGSAAQTNSMVTLGCLVKGYFPEPVTVTWNSGSLSSGVHTFPAVLQSDLYTLSSSVTVPSSTWPSETVTCNVAHPASSTKVDKKIVPRDCGCKPCICQPNEVEEVFIFPPKPKDVLTITLTPKVTCVVVDISKDDPEVQFSWFVDDVEVHTAQTQPREEQFNLTFRSVSELPIMHQDWLNGKEFKCRVNSDAFPAPIERTISKTKGRPKAPQVYTIPPPKEQMAKDKVSLTCMITDFFPEDITVEWQWNGQPAENYKNTQPIMDTDGSYFVYSKLNVQKSNWEAGNTFTCSVLHEGLHNHHTEKSLSHSPGK light: not shown
9 | 31.7 | 8.9 fold vs H237-mIgG1/MRAL-k0 | 0.412 | 510 fold vs H237-mIgG1/MRAL-k0 | H237-MB537/MRAL-k0 (antibody, mouse IgG1, kappa, copies: 2 + 2) heavy: QVQLQESGPGLVKPSETLSLTCAVSGHSISHDHAWSWVRQPPGEGLEWIGFISYSGITNYNPSLQGRVTISRDNSKNTLYLQMNSLRAEDTAVYYCARSLARTTAMDYWGEGTLVTVSSAKTTPPSVYPLAPGSAAQTNSMVTLGCLVKGYFPEPVTVTWNSGSLSSGVHTFPAVLQSDLYTLSSSVTVPSSTWPSETVTCNVAHPASSTKVDKKIVPRDCGCKPCICQPNEVEEVFIFPPKPKDVLTITLTPKVTCVVVDISKDDPEVQFSWFVDDVEVHTAQTQPREEQFNLTFRSVSELPIMHQDWLNGKEFKCRVDSDAFPAPIERTISKTKGRPKAPQVYTIPPPKEQMAKDKVSLTCMITDFFPEDITVEWQWNGQPAENYKNTQPIMDTDGSYFVYSKLNVQKSNWEAGNTFTCSVLHEGLHNHHTEKSLSHSPGK light: not shown
